# Results: the nanobody polyreactivity screen of Harvey et al. (2022)
# Experiment: yeast display, Sf9 membrane polyspecificity reagent, FACS + sequencing; frameworks hold sequencing errors
# Outline: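 A nanobody's polyreactivity label depends on the gate it was sorted from. Yeast display cells were stained with 10% biotinylated, detergent-solubilized Sf9 membrane reagent for 1 hour at 4 °C, enriched on streptavidin microbeads and sorted by FACS. The low and high (top ~1%) gates were set on anti-HA fluorescence for expression and streptavidin fluorescence for reagent binding.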
row,Sequence,polyreactivity (PSR sort gate)
1,QVQLVESGGGLVQAGGSLRLSCAASGRIFGTNAMGWYRQAPGKERELVADITSGGSTNYADSVKGRFTISRDNAKNTVYLQMNSLKPEDTSVYYCAATWYGYYSRYDFYYWGQGTQVTVSS,low polyreactivity
2,QVQLVESGGGLVQAGGSLRLSCAASGRIFGTNAMGWYRQAPGKESELVATITRGGGNTYYADSVKGRFTISRDNAKNTVYLQMISLKPEDTAVYYCGAKFHRFAWYSHYDYWGQGTQVTVSS,low polyreactivity
3,QVQLVESGGGLVQAGGSLRLSCAASGRIFGTNAMGWYRQAPGKESELVATITRGGGNTYYADSVKGRFTISRDNAKNTVYLQMNSLKQEDTAVYYCNTRRLHGWLYGYEYWGQGTQVTVSS,low polyreactivity
4,QVQLVESGGGLVQAGGSLRLSCAASGRIFGTYAMGWYRQAPGKERELVAAISSSGTSTYYADSVKGRFTISRDNAKNTVYLQMNSLKPEDTAVYYCAADTVSFSILYDYWGQGTQVTVSS,low polyreactivity
5,QVQLVESGGGLVQAGGSLRLSCAASGRIFGTYAMGWYRQAPGKERELVASITDRGDSTYADSVKGRFTISRDNAKNTVYLQMNSLKPEDTAVYYCAVGYNSKLAVGMYYWGQGTQVTVSS,low polyreactivity
6,QVQLVESGGGLVQAGGSLRLSCAASGRIFGTYTMGWYRQAPGKERELVAAISRNGGSTYYADSVKGRITISRDNAKNTVYLQMNSLKPEDTAVYYCNAERRDDRGFDYWGQGTQVTVSS,low polyreactivity
7,QVQLVESGGGLVQAGGSLRLSCAASGRIFGVNAMGWYRQAPGKERELVAAISSGDSTYYADSVKGRFTISRDNAKNTVYLQMTCLKPEDTAVYYCAADVLGTTTTVGGFNYWGQGTQVTVSS,low polyreactivity
8,QVQLVESGGGLVQAGGSLRLSCAASGRIFGVNAMGWYRQAPGKERELVAAISSNGGRTYYADSVKGRFTISRDNAKNTVYLQMNSLKPEDTAVYYCATRSSVGARHYYWGQGTQVTVSS,high polyreactivity
9,QVQLVESGGGLVQAGGSLRLSCAASGRIFGVNAMGWYRQAPGKERELVAAISVSGDSTYYADSVKGRFTISRDNAKNTVYLQMNSLKPEDTAVYYCNAGFTFVPADLTDEYYWGQGTQVTVSS,low polyreactivity
10,QVQLVESGGGLVQAGGSLRLSCAASGRIFGVNAMGWYRQAPGKERELVADISSGGSTYYADSVKGRFTISRDNAKNTVNLQMNSLTPEYTAVYYCAVDKSVYVSYSFYFEYDYWGQGTQVTVSS,low polyreactivity
11,QVQLVESGGGLVQAGGSLRLSCAASGRIFGVYALGWYRQAPGKERELVAVISSGGSTKYADSVKGRFTISRDTAKNTVYLQMNSLKPEDTAVYYCAAADYRFWSRYDYWGQGTQVTVSS,low polyreactivity
12,QVQLVESGGGLVQAGGSLRLSCAASGRIFGVYAMGWSRQAPGKERELVATITSGGSTSYADSVKGRFTISRDNAINTVFLQMNSLKPEDTAVYYCNAPYSFFWQQMNYWGQGTQVTVSS,low polyreactivity
13,QVQLVESGGGLVQAGGSLRLSCAASGRIFGVYAMGWYRQAPGKERELVAAIYSGSSTYYADSVKGRFTISRDNAKNTVYLQMNSLKPEDTAVYYCNADTPYWVRWKYDYWGQGTQVTVSS,low polyreactivity
14,QVQLVESGGGLVQAGGSLRLSCAASGRIFGVYAMGWYRQAPGKERELVADITRGGGSTYYADSVKGRFTISRDNAKNTVYLQMNSLKPEDTAVYYCAARYRFQRGGYYYWGQGTQVTVSS,high polyreactivity
15,QVQLVESGGGLVQAGGSLRLSCAASGRIFGVYAMGWYRQAPGKERELVAGINGGDSTYYADSVKGRFTISRDNAKNTVYLQMNSLKPEDTAVYYCAAEADESGSNYDYWGQGTQVTVSS,low polyreactivity
16,QVQLVESGGGLVQAGGSLRLSCAASGRIFGWNAMGWYRQAPGKERELVAGISSSGGSTYYADSVKGRFTISRDNAKNTVYLQMNSLKPEDTAVYYCARRHYVGYYGYYYWGQGTQVTVSS,high polyreactivity
17,QVQLVESGGGLVQAGGSLRLSCAASGRIFGWYAMGWYRQAPGKERELVAAISRGGGSTYYADSVKGRFTISRDNAKNTVYLQMNSLKPEDTAVYYCARDGGSLSHYHVGTGKFGYWGQGTQVTVSS,low polyreactivity
18,QVQLVESGGGLVQAGGSLRLSCAASGRIFGWYAMGWYRQAPGKERELVAAISSGGRTNYADSVKGRFTISRDNAKNTVYLQMNSLKPEDTAVYYCNARRTYLPYKFGYDYWGQGTQVTVSS,low polyreactivity
19,QVQLVESGGGLVQAGGSLRLSCAASGRIFGYNAMGWYRQAPGKERDLVAAITTSGGSTYYADSVKGRFTISRDNAKNTVYLQMNSLKPEDTAVYYCARDSLQVFYPYASDDYWGQGTQVTVSS,low polyreactivity
20,QVQLVESGGGLVQAGGSLRLSCAASGRIFGYNAMGWYRQAPGKERELVAAIRRRGGTTYYADSVKGRFTISRDNAKNTVYLQMNSLKPEDTAVYYCNTKYPGRGYYWGQGTQVTVSS,high polyreactivity
21,QVQLVESGGGLVQAGGSLRLSCAASGRIFGYNAMGWYRQAPGKERELVAAISSTGNTYYADSVKGRFTISRDNAKNTVYLQMNSLKPEDTAVYYCARSWLYSQRRYDYWGQGTQVTVSS,low polyreactivity
22,QVQLVESGGGLVQAGGSLRLSCAASGRIFGYNAMGWYRQAPGKERELVAAITNGGSTNYADSVKGRFTISRDNAKNTVYFHMNSLKPEDTAVYYCAVKWYPPGHDYWGQGTQVTVSS,low polyreactivity

row,Sequence,polyreactivity (PSR sort gate)
1,QVQLVESGGGLVQAGGSLRLSCAASGRIFGYYAMGGYRQAPGKERELVASISYSGASSYYADSVKGRFTISRDNAKNTVYLQMNSLKPEDTAVYYCNTDGDDFFHVIYDYWGQGTQVTVSS,low polyreactivity
2,QVQLVESGGGLVQAGGSLRLSCAASGRIFGYYAMGWSRQAPGKERELVAAISSDGSTYYADSVKGRFTISRDNAENTVYLQMNSLKPEDTAVYYCAKEGRWDSYGYSAQPFYYWGQGTQVTVSS,low polyreactivity
3,QVQLVESGGGLVQAGGSLRLSCAASGRIFGYYAMGWYIQAPGKERELVAGIDWSGGNTYYADSVKGRFTISRDNAKNTVYLQMNSLKPEDTAVYYCNTEGGRDTAWYDYWGQGTQVTVSS,low polyreactivity
4,QVQLVESGGGLVQAGGSLRLSCAASGRIFGYYAMGWYRQAPGKERELVAAISSSGTSTYYADSVKGRFTISRDNAKNTVYLQMNSLKPEDTAVYYCAAYTYYEGDYWGQGTQVTVSS,low polyreactivity
5,QVQLVESGGGLVQAGGSLRLSCAASGRIFGYYAMGWYRQAPGKERELVAAISYNVVSTNYADSVKGRFTISRDNPKNTVYLQMNSLKPEDTAVYYCAADYGRPYTAFDYWGQGTQVTVSS,low polyreactivity
6,QVQLVESGGGLVQAGGSLRLSCAASGRIFGYYAMGWYRQAPGKERELVAAITINGGRTYYADSVKGRFTISRDNAKNTVYLQMNSLKPEDTAVYYCTATSRYNRLGYWGQGTLVTVSS,high polyreactivity
7,QVQLVESGGGLVQAGGSLRLSCAASGRIFGYYAMGWYRQAPGKESELVATINSVGSTNYADSVKGRFTISRDNAKNTVYLQMNSLKPEDTAVYYCATDSAYTFFTYRLWRHGYWGQGTQVTVSS,low polyreactivity
8,QVQLVESGGGLVQAGGSLRLSCAASGRIFGYYTMGSYRQAPGKEMELVATINWSGGSTYYADSVKGRFTISRDNAKNTVYLQMNSLKPEDTAVYYCADRPALWGRYRGYDYWGQGTQVTVSS,high polyreactivity
9,QVQLVESGGGLVQAGGSLRLSCAASGRIFGYYVMGWYRQAPGKERELVAAISRSGGSTYYADSVKGRFTISRDNAKNTVYLEMNSLKPEDTAVYYCANYSPRYPNYDYWGQGTQVTVSS,high polyreactivity
10,QVQLVESGGGLVQAGGSLRLSCAASGRIFHKYAMGWYRQAPGKERELVATIRSDDITYYADSVKGRFTISRDNAKNTVYLQMNSLKPEDTAVYYCAAYFWRYSSLYYYWGQGTQVTVSS,high polyreactivity
11,QVQLVESGGGLVQAGGSLRLSCAASGRIFHQYAMGWYRQAPGKERELVAAITTRGTSTYYADSVKGRFTISRDNAKNTVYLQMNSLKPEDTAVYYCAAKFFGSVGHVAGDYWGQGTQVTVSS,high polyreactivity
12,QVQLVESGGGLVQAGGSLRLSCAASGRIFHRYAMGWYRQAPGKERELVAAISYSTARTYYADSVKGRFTISRDNAKNTVYLQMNSLKPEDTAVYYCAARYQGGYDYWGQGTQVTVSS,high polyreactivity
13,QVQLVESGGGLVQAGGSLRLSCAASGRIFHVYAMGWYRQAPGKERELVAAISSGDRTYYADSVKGRFIISRDNAKNTVYLQMNSLKPEDTAVYYCAATAQYYHYHLAKYDYWGQGTQVTVSS,low polyreactivity
14,QVQLVESGGGLVQAGGSLRLSCAASGRIFHWYVMGWYRQAPGKERELVAAISWSSGSTYADSVKGRFTISRDNAKNTVYLQMNSLKPEDTAVYYCNAKTYYPPFGYWGQGTQVTVSS,low polyreactivity
15,QVQLVESGGGLVQAGGSLRLSCAASGRIFHYYAMGWYRQAPGTERELVAAITSSGGSTYYADSVKGRFTISRDNAKNTVYLQMNSLKPEDTAVYYCAAGLIVGRFLRYDYWGQGTQVTVSS,high polyreactivity
16,QVQLVESGGGLVQAGGSLRLSCAASGRIFIANTMGCYRQAPGKERELVAAITQRGDSTYYADSVKGRFTISRDNAKNTVYLQMNSLKPEDTAVYYCAARYYLSSYVRYNYWGQGTQVTVSS,high polyreactivity
17,QVQLVESGGGLVQAGGSLRLSCAASGRIFIGNAMGWYRQAPGKERELVAAISKRGGSTYYADSVKGRFTISRDNAKNTVYLQMNSLKQEDTAVYYCNKESLYREFDYWGQGTQVTVSS,low polyreactivity
18,QVQLVESGGGLVQAGGSLRLSCAASGRIFIGNAMGWYRQAPGKERELVADISYSGGTTYYADSVKGRFTISRENAKNTVYVQMNSLKPVDTAVYYCNKYDPRPVWQGWVWIEYYYWGQGTQVTVSS,low polyreactivity
19,QVQLVESGGGLVQAGGSLRLSCAASGRIFIHYAMGWYRQAPGKERELVAAISWGGGRTYYADSVKGRFTISRDNAKNTVYLQMNSLKPEDTAVYYCAAAGRGSGYDYWGQGTQVTVSS,high polyreactivity
20,QVQLVESGGGLVQAGGSLRLSCAASGRIFIHYAMGWYRQAPGKERELVAAITFNGGSTYYADSVKGRFTISRDNAKNTVYLQMNSLKPEDTAVYYCAARLSKRSGYYYWGQGTQVTVSS,high polyreactivity
21,QVQLVESGGGLVQAGGSLRLSCAASGRIFIINALGWYRQAPGKERELVAAINTGGGTNYADSVKGRFTISRDNAKNTVYLQMNSLKPEDTAVYYCAARTYDYRARHKDGYWGQGTQVTVSS,high polyreactivity
